This note sets out measurements from publication PMC3541406, “Solution Structure of an Archaeal DNA Binding Protein with an Eukaryotic Zinc Finger Fold”.

Common to all, as to details: protein: recombinant; tags: none; blunt
Data set [1] concerns the target T1, AFV1p06 (ORF59a) (Acidianus filamentous virus 1? (AFV1, …, UniProt Q70LE5 1-59)).
T1 sequence: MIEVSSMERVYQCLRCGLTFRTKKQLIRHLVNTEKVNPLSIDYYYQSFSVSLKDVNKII
Briefly: competition; vs labelled dsGCcomb 75 nM, 0.5 uM protein; 50 mM HEPES pH 7.4, 10 uM ZnCl2, 150 mM NaCl, 5% glycerol, 0.02% Tween, 3 mM DTT, 50 ng/uL salmon sperm DNA, 15 min at 48 C; 6% native PAGE in TBE.

The target in data set [2] is T1, AFV1p06 (ORF59a). Briefly: competition; vs labelled dsATcomb 75 nM, 0.5 uM protein; 50 mM HEPES pH 7.4, 10 uM ZnCl2, 150 mM NaCl, 5% glycerol, 0.02% Tween, 3 mM DTT, 50 ng/uL salmon sperm DNA, 15 min at 48 C; 6% native PAGE in TBE.
The target of data set [3] is T1, AFV1p06 (ORF59a). Briefly: EMSA; 10 uM ZnCl2, 50 ng/uL salmon sperm DNA, 75 nM probe, 0-2 uM protein; 50 mM HEPES pH 7.4, 10 uM ZnCl2, 150 mM NaCl, 5% glycerol, 0.02% Tween, 3 mM DTT, 50 ng/uL salmon sperm DNA, 15 min at 48 C; 6% native PAGE in TBE. In general terms: In EMSA bound probe runs differently from free probe, usually more slowly.

B1: dsATcomb (dsDNA)
DNA 1: AATGATTCTAAGTATCTTAGAAACA
DNA 2: TGTTTCTAAGATACTTAGAATCATT
On to B1, for which the binding signal with AFV1p06 (ORF59a) [1] is ~5 molar ratio of cold dsATcomb to hot dsGCcomb for similar displacement.

B2: dsGCcomb (dsDNA)
DNA 1: AGGGTGGCAGCGTCGGAGCCTCGCA
DNA 2: TGCGAGGCTCCGACGCTGCCACCCT
Regarding B2, the binding signal with AFV1p06 (ORF59a) [2] was ~0.5 molar ratio of cold dsGCcomb to hot dsATcomb giving clear signal decrease; with AFV1p06 (ORF59a) [3], ≥ 2 fold more efficient than dsATcomb.
